{"source": "patent US11365264B2", "about": "“Therapeutic methods and compositions” (INSTITUT PASTEUR, priority 2013, dated 2022)", "molecules": {"B1": {"name": "hPLA2 X: recombinant human PLA2 X (in E. coli) (protein, UniProt O15496 43-165, looked up)", "Group 10 secretory …": "GILELAGTVGCVGPRTPIAYMKYGCFCGLGGHGQPRDAIDWCCHGHDCCYTRAEEAGCSPKTERYSWQCVNQSVLCGPAENKCQELLCKCDQEIANCLAQTEYNLKYLFYPQFLCEPDSPKCD"}, "B2": {"name": "recombinant PLA2 soluble receptor: soluble murine receptor specific for PLA2 GIB, SEQ ID NO: 22 (protein)", "chain": "MVQWLAMLQLLWLQQLLLLGIHQGIAQDLTHIQEPSLEWRDKGIFIIQSESLKTCIQAGKSVLTLENCKQPNEHMLWKWVSDDHLFNVGGSGCLGLNISALEQPLKLYECDSTLISLRWHCDRKMIEGPLQYKVQVKSDNTVVARKQIHRWIAYTSSGGDICEHPSRDLYTLKGNAHGMPCVFPFQFKGHWHHDCIREGQKEHLLWCATTSRYEEDEKWGFCPDPTSMKVFCDATWQRNGSSRICYQFNLLSSLSWNQAHSSCLMQGGALLSIADEDEEDFIRKHLSKVVKEVWIGLNQLDEKAGWQWSDGTPLSYLNWSQEITPGPFVEHHCGTLEVVSAAWRSRDCESTLPYICKRDLNHTAQGILEKDSWKYHATHCDPDWTPFNRKCYKLKKDRKSWLGALHSCQSNDSVLMDVASLAEVEFLVSLLRDENASETWIGLSSNKIPVSFEWSSGSSVIFTNWYPLEPRILPNRRQLCVSAEESDGRWKVKDCKERLFYICKKAGQVPADEQSGCPAGWERHGRFCYKIDTVLRSFEEASSGYYCSPALLTITSRFEQAFITSLISSVAEKDSYFWIALQDQNNTGEYTWKTVGQREPVQYTYWNTRQPSNRGGCVVVRGGSSLGRWEVKDCSDFKAMSLCKTPVKIWEKTELEERWPFHPCYMDWESATGLASCFKVFHSEKVLMKRSWREAEAFCEEFGAHLASFAHIEEENFVNELLHSKFNWTQERQFWIGFNRRNPLNAGSWAWSDGSPVVSSFLDNAYFEEDAKNCAVYKANKTLLPSNCASKHEWICRIPRDVRPKFPDWYQYDAPWLFYQNAEYLFHTHPAEWATFEFVCGWLRSDFLTIYSAQEQEFIHSKIKGLTKYGVKWWIGLEEGGARDQIQWSNGSPVIFQNWDKGREERVDSQRKRCVFISSITGLWGTENCSVPLPSICKRVKIWVIEKEKPPTQPGTCPKGWLYFNYKCFLVTIPKDPRELKTWTGAQEFCVAKGGTLVSIKSELEQAFITMNLFGQTTNVWIGLQSTNHEKWVNGKPLVYSNWSPSDIINIPSYNTTEFQKHIPLCALMSSNPNFHFTGKWYFDDCGKEGYGFVCEKMQDTLEHHVNVSDTSAIPSTLEYGNRTYKIIRGNMTWYAAGKSCRMHRAELASIPDAFHQAFLTVLLSRLGHTHWIGLSTTDNGQTFDWSDGTKSPFTYWKDEESAFLGDCAFADTNGRWHSTACESFLQGAICHVVTETKAFEHPGLCSETSVPWIKFKGNCYSFSTVLDSRSFEDAHEFCKSEGSNLLAIRDAAENSFLLEELLAFGSSVQMVWLNAQFDNNNKTLRWFDGTPTEQSNWGLRKPDMDHLKPHPCVVLRIPEGIWHFTPCEDKKGFICKMEAGIPAVTAQPEKGLSHSIVPVTVTLTLIIALGIFMLCFWIYKQKSDIFQRLTGSRGSYYPTLNFSTAHLEENILISDLEKNTNDEEVRDAPATESKRGHKGRPICISP", "modifications": "soluble receptor"}, "B3": {"name": "IL-7: recombinant glycosylated human IL-7 (Cytheris) (protein, UniProt P13232 26-177, looked up)", "Interleukin-7": "DCDIEGKDGKQYESVLMVSIDQLLDSMKEIGSNCLNNEFNFFKRHICDANKEGMFLFRAARKLRQFLKMNSTGDFDLHLLKVSEGTTILLNCTGQVKGRKPAALGEAQPTKSLEENKSLKEQKKLNDLCFLKRLLQEIKTCWNKILMGTKEH", "modifications": "glycosylated"}, "B4": {"name": "hPLA2 IIA: recombinant human PLA2 IIA (in E. coli) (protein, UniProt P14555 21-144, looked up)", "Phospholipase A2, membrane …": "NLVNFHRMIKLTTGKEAALSYGFYGCHCGVGGRGSPKDATDRCCVTHDCCYKRLEKRGCGTKFLSYKFSNSGSRITCAKQDSCRSQLCECDKAAATCFARNKTTYNKKYQYYSNKHCRGSTPRC"}}, "key": {"[1]": {"test_system": "purified HD CD4 T cells", "format": "cell-based, human"}, "[2]": {"test_system": "purified HD CD4 T cells", "assay": "Inhibition of IL-7-induced STAT5 phosphorylation and nuclear translocation", "format": "cell-based, human", "details": "for effect on IL-7 induced nuclear translocation of phosphoSTAT5 (NT pSTAT5): CD4 T cells, IL-7 stimulation", "method": "CD4 T-cells were purified by negative selection as already described (10) then activated with 2 nM recombinant glycosylated human IL-7 (Cytheris) or 40 μg PHA (Sigma). The confocal and STED microscopy used to study cell surface microdomains (MMD) and phospho-STAT5 cellular compartment distribution has already been described (10, 12). FCS analysis of protein diffusion at the surface of living cells has also been described (10, 12\nCells were then plated on polylysine-coated glass slides for 10 min then activated by 15 min IL-7 (2 nM) or not for control (NS), then fixed by PFA (PFA, 1.5%, 15 min at 37° C. followed by 15 min at room temperature) and permeabilization by methanol (90% at −20° C.). Cells were equilibrated one hour in PBS/SVF 5% then phospho-STAT5 was then stained by rabbit anti-STAT5 labelled with goat anti-rabbit-Atto642 and analyzed by FACS or STED microscopy.\nVP plasma containing PLA2sGIB was first incubated with purified HD CD4 T cells (20 min) before stimulation by IL-7 (2 nM, 15 min.). Cells were then plated on polylysine coated glass slides before fixation by PFA (1.5%) and permeabilization by methanol (90% at −20° C.). pSTAT5 was then stained by rabbit anti-STAT5 labelled with goat anti-rabbit-Atto642 and analyzed by FACS or pulsed STED microscopy."}, "[3]": {"assay": "Enz Check PLA2 enzymatic assay", "details": "for enzymatic activity (in words): recombinant PLA2 proteins produced in E. coli; for enzymatic activity of mutant vs recombinant porcine PLA2 GIB: each protein at 200 microM, FIG. 12", "description": "The assay was performed with the Enz Check PLA2 assay kit from Life Technologies (ref.: E102147). […] The PLA2 activity is followed by the intensity increase of a single wavelength at 515 nm. PLA2 is detected by changes in the emission intensity ratio at 515/575 nm with excitation at 460 nm. Specific activities are expressed in amount of fluorescent substrate (U) obtained per second and per μg of enzyme in solution.\nEach protein was used at 200 microM."}, "[4]": {"target": "T1, human GIBsPLA2 (Homo sapiens, UniProt P04054)", "T1 construct": "from tissue", "T1 sequence (P04054 23-148)": "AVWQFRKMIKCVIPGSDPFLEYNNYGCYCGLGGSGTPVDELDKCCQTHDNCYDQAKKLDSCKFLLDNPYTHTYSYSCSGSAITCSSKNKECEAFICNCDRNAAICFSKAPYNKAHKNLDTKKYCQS", "assay": "Inhibitor test: inhibition of IL-7-induced pSTAT5 nuclear translocation by viremic plasma or PLA2 GIB", "format": "cell-based", "details": "100 nM inhibitor, human PLA2G1B, FIG. 16"}}, "data": [{"molecule": "commercial purified porcine GIBsPLA2: commercial purified porcine GIBsPLA2", "values": [{"measurement": "induction of abnormal membrane microdomains (aMMD)", "setting": "[1]", "result": "induces abnormal MDM"}, {"measurement": "effect on IL-7 induced nuclear translocation of phosphoSTAT5 (NT pSTAT5)", "setting": "[2]", "result": "block IL-7 pSTAT5 nuclear translocation"}]}, {"molecule": "hPLA2 IB: recombinant human PLA2 IB (in E. coli)", "values": [{"measurement": "Specific activity", "setting": "[3]", "result": 10694.57, "unit": "U/ug/s"}, {"measurement": "enzymatic activity (in words)", "setting": "[3]", "result": "potent enzymatic activity"}]}, {"molecule": "hPLA2 IID: recombinant human PLA2 IID (E. coli)", "values": [{"measurement": "Specific activity", "setting": "[3]", "result": 445.21, "unit": "U/ug/s"}, {"measurement": "enzymatic activity (in words)", "setting": "[3]", "result": "not active"}]}, {"molecule": "mutant H48Q: porcine PLA2 GIB mutant, histidine at position 48 replaced by glutamine, produced in E. coli", "values": [{"measurement": "induction of abnormal membrane microdomains (aMMD)", "setting": "[1]", "result": "lost the ability"}, {"measurement": "effect on IL-7 induced nuclear translocation of phosphoSTAT5 (NT pSTAT5)", "setting": "[2]", "result": "lost the ability"}, {"measurement": "enzymatic activity of mutant vs recombinant porcine PLA2 GIB", "setting": "[3]", "result": "lost all of its enzymatic activity"}, {"measurement": "enzymatic activity of mutant vs recombinant porcine PLA2 GIB", "setting": "[3]; listed as pPLA2GIB H48Q", "result": "Absence of activity"}]}, {"molecule": "pPLA2 IB: recombinant porcine PLA2 IB (in E. coli)", "values": [{"measurement": "Specific activity", "setting": "[3]", "result": 10353.57, "unit": "U/ug/s"}]}, {"molecule": "ppPLA2 IB: Purified porcine pancreas PLA2 IB", "values": [{"measurement": "Specific activity", "setting": "[3]", "result": 7694.31, "unit": "U/ug/s"}]}, {"molecule": "B1", "values": [{"measurement": "Specific activity", "setting": "[3]", "result": 3318.97, "unit": "U/ug/s"}, {"measurement": "enzymatic activity (in words)", "setting": "[3]", "result": "very limited activity"}]}, {"molecule": "B2", "values": [{"measurement": "effect on activity of PLA2sGIB on NT of pSTAT5", "setting": "[4]", "result": "significantly block the negative effect of PLA2sGIB on the NT of pSTAT5"}, {"measurement": "effect on activity of PLA2sGIB on NT of pSTAT5", "setting": "[4]; listed as sMR", "result": "inhibits the activity of human PLA2G1B"}]}, {"molecule": "B3", "values": [{"measurement": "MMD size", "setting": "[1]", "result": 90, "unit": "nm"}, {"measurement": "number of MMD per CD4 T cell", "setting": "[1]", "result": 300, "unit": "MMD/cell"}, {"measurement": "phospho-STAT5 found in the nucleus", "setting": "[2]; HD CD4 T cells, five minutes following IL-7 stimulation", "result": 50, "unit": "%"}]}, {"molecule": "B4", "values": [{"measurement": "Specific activity", "setting": "[3]", "result": 214.93, "unit": "U/ug/s"}, {"measurement": "enzymatic activity (in words)", "setting": "[3]", "result": "not active"}]}]}
